Assay [1] addresses IL-1 receptor (IL-1R) on cells (UniProt P14778). In words: cell-based or functional assay.
Assay [2] has as its target recombinant soluble His-tagged CD36. In words: SPR; His-tagged soluble CD36 immobilized, peptide 100 nM to 30 µM, Langmuir isotherm fit. (In general: Surface plasmon resonance follows binding to a sensor surface in real time, without labels.)
For assay [3], the target named is CD36 on RAW 264.7 murine macrophage cells (murine) (UniProt Q08857). Briefly: cell-based or functional assay.
Chain of CD36 on RAW 264.7 murine macrophage cells (murine) (Q08857 whole entry): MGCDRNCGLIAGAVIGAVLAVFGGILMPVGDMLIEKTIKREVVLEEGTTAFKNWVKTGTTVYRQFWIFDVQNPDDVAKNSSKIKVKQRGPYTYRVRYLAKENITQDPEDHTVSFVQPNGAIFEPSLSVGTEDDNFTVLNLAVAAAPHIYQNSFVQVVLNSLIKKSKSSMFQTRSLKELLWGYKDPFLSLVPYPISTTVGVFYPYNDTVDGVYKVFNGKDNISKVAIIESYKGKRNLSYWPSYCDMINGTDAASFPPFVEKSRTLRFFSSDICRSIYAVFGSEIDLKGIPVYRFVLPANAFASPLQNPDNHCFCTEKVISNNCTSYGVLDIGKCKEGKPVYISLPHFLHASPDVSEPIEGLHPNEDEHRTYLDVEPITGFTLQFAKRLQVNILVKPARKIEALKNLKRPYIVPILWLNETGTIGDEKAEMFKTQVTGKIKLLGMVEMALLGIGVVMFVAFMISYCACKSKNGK

Chain of recombinant soluble His-tagged CD36 (P16671 30-439): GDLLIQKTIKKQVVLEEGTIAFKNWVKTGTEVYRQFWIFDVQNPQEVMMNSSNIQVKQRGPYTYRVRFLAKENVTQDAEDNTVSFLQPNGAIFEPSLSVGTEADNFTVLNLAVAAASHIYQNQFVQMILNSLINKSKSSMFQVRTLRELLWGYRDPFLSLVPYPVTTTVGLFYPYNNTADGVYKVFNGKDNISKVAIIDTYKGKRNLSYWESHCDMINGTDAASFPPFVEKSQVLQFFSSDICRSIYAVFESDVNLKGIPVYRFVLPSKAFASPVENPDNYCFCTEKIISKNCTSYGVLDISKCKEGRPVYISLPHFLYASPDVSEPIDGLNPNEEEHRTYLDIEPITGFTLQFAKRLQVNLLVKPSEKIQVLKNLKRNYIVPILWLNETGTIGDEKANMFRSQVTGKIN
Chain of IL-1 receptor (IL-1R) on cells (P14778 18-569 limits assumed): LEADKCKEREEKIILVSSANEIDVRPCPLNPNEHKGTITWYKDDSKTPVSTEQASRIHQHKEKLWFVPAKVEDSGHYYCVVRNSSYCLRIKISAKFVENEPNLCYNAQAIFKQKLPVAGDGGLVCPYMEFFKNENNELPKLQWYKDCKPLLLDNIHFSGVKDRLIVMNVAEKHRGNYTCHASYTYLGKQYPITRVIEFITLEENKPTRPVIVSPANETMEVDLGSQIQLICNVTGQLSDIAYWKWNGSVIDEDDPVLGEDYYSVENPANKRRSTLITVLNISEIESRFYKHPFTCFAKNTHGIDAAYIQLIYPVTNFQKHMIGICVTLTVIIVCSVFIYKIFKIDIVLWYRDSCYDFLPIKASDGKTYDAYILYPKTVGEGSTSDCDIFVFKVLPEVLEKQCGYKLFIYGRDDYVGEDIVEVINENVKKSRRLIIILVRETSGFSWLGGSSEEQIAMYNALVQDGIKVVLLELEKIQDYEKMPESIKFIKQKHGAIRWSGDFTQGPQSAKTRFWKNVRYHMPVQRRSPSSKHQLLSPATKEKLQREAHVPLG

In the case of “Kineret (from UniProt P18510 26-177) (ligand)”, the decrease in NF-KB activation in HEK Blue cells (SEAP reporter, OD620) in assay [1] worked out at 100%.

Consider [(R)-Agl^3]-101.10 (peptide), for which, in assay [1], the IL-1β-induced human thymocyte (TF-1) proliferation was found to be 41%.

On to “[N-Amino-4-benzylimidazolin-2-one^4]GHRP-6 (His-D-Trp-Ala-(N-amino-4-benzyl-imidazolin-2-one)-D-Phe-Lys-NH2), 31b (peptide)”, for which, in assay [2], the Kd was 11 µM and the ΔλSPR (nm) amounted to 1.6 nm. The substance further displayed a JNK-kinase cellular assay EC50 in assay [3] above 10 µM.

As to “[N-Amino-4-methylimidazolin-2-one^4]GHRP-6 (His-D-Trp-Ala-(N-amino-4-methyl-imidazolin-2-one)-D-Phe-Lys-NH2), RS-31a (peptide)”, in assay [2], the Kd was found to be 4.9 µM and the ΔλSPR (nm) was 1.1 nm. Besides, in assay [3], the JNK-kinase cellular assay EC50 turned out to be 0.0554 µM.

“[Nad^3]-101.10 (D-Arg-D-Tyr-Nad-D-Val-D-Glu-D-Leu-D-Ala-NH2) (peptide)” showed an IL-1β-induced human thymocyte (TF-1) proliferation in assay [1] of 53%.

As for “[Nai^3]-101.10 (D-Arg-D-Tyr-Nai-D-Val-D-Glu-D-Leu-D-Ala-NH2) (peptide)”, in assay [1], the IL-1β-induced human thymocyte (TF-1) proliferation came out at 77% and the decrease in NF-KB activation in HEK Blue cells (SEAP reporter, OD620) amounted to 65%.

As for “[Nap^3]-101.10 (D-Arg-D-Tyr-Nap-D-Val-D-Glu-D-Leu-D-Ala-NH2) (peptide)”, the IL-1β-induced human thymocyte (TF-1) proliferation in assay [1] came out at 41%.

For “[azaTyr^4]GHRP-6 (His-D-Trp-Ala-AzaTyr-D-Phe-Lys-NH2) (peptide)”, in assay [2], the Kd is 5 µM and the ΔλSPR (nm) amounted to 1.8 nm. In addition, the JNK-kinase cellular assay EC50 in assay [3] turned out to be 0.214 µM.

As a reminder, the Kd is the constant that tells how readily two partners part at equilibrium.

(Values after US20140024606A1.)
